B1: RAD51 (parent)
chain: RFLRMLLRLADEFGVAVVITNQVV
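Also: lentivirally expressed fusions sorted by FACS into six bins by GFP to DsRed ratio, PSI derived from sequencing read proportions per bin multiplied by bin number.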

Variants of: B1
Test: protein stability index of a GFP-peptide fusion (GPS, HEK-293T) (PSI 1-6); higher = more stable
Settings: c terminus: a fixed tail appended
For RFLRMLLRLADEFGVAVVITNQNV [V23N], the protein stability index was 1.9.
With RFLRMLLRLADEFGVAVVITNQYV [V23Y] the protein stability index was 1.5.
For RFLRMLLRLADEFGVAVVITNQEV [V23E], the protein stability index was 1.9.
With RFLRMLLRLADEFGVAVVITRQVV [N21R] the protein stability index was 1.68.
For RFLRMLLRLADEFGVAVVITEQVV [N21E], the protein stability index was 1.08.
RFLRMLLRLADEFGVAVVITLQVV [N21L] showed a protein stability index of 1.97.
In the case of RFLRMLLRLADEFGVAVVITDQVV [N21D], the protein stability index is reported as 4.17.
For RFLRMLLRLADEFGVAVVITPQVV [N21P], the protein stability index was 1.7.
Work on RFLRMLLRLADEFGVAVVITKQVV [N21K] yielded a protein stability index of 2.3.
RFLRMLLRLADEFGVAVVITVQVV [N21V] showed a protein stability index of 2.43.
For RFLRMLLRLADEFGVAVVITMQVV [N21M], the protein stability index was 4.31.
Variant RFLRMLLRLADEFGVAVVITFQVV [N21F] has a protein stability index of 2.06.
In the case of RFLRMLLRLADEFGVAVVITAQVV [N21A], the protein stability index is reported as 2.52.
With RFLRMLLRLADEFGVAVVITGQVV [N21G] the protein stability index was 3.1.
In the case of RFLRMLLRLADEFGVAVVITQQVV [N21Q], the protein stability index is reported as 1.9.
In the case of RFLRMLLRLADEFGVAVVITYQVV [N21Y], the protein stability index is reported as 2.19.
RFLRMLLRLADEFGVAVVITTQVV [N21T] showed a protein stability index of 2.02.
Work on RFLRMLLRLADEFGVAVVITSQVV [N21S] yielded a protein stability index of 1.19.
In the case of RFLRMLLRLADEFGVAVVITHQVV [N21H], the protein stability index is reported as 1.43.
With RFLRMLLRLADEFGVAVVITWQVV [N21W] the protein stability index was 1.76.
In the case of RFLRMLLRLADEFGVAVVITIQVV [N21I], the protein stability index is reported as 1.43.
RFLRMLLRLADEFGVAVVITCQVV [N21C] showed a protein stability index of 1.32.
For RFLRMLLRLADEFGVAVVTTNQVV [I19T], the protein stability index was 2.84.
Work on RFLRMLLRLADEFGVAVVLTNQVV [I19L] yielded a protein stability index of 1.45.
Variant RFLRMLLRLADEFGVAVVSTNQVV [I19S] has a protein stability index of 1.95.
Variant RFLRMLLRLADEFGVAVVPTNQVV [I19P] has a protein stability index of 1.47.
RFLRMLLRLADEFGVAVVDTNQVV [I19D] showed a protein stability index of 2.76.
RFLRMLLRLADEFGVAVVGTNQVV [I19G] gave a protein stability index of 1.58.
With RFLRMLLRLADEFGVAVVWTNQVV [I19W] the protein stability index was 1.96.
With RFLRMLLRLADEFGVAVVHTNQVV [I19H] the protein stability index was 1.25.
Variant RFLRMLLRLADEFGVAVVCTNQVV [I19C] has a protein stability index of 2.
For RFLRMLLRLADEFGVAVVATNQVV [I19A], the protein stability index was 3.02.
With RFLRMLLRLADEFGVAVVVTNQVV [I19V] the protein stability index was 1.63.
With RFLRMLLRLADEFGVAVVQTNQVV [I19Q] the protein stability index was 1.37.
With RFLRMLLRLADEFGVAVVNTNQVV [I19N] the protein stability index was 2.67.
For RFLRMLLRLADEFGVAVVKTNQVV [I19K], the protein stability index was 2.52.
Work on RFLRMLLRLADEFGVAVVFTNQVV [I19F] yielded a protein stability index of 2.18.
In the case of RFLRMLLRLADEFGVAVVYTNQVV [I19Y], the protein stability index is reported as 2.79.
For RFLRMLLRLADEFGVAVVRTNQVV [I19R], the protein stability index was 3.
RFLRMLLRLADEFGVAVVITNGVV [Q22G] gave a protein stability index of 2.92.
Work on RFLRMLLRLADEFGVAVVITNPVV [Q22P] yielded a protein stability index of 1.99.
In the case of RFLRMLLRLADEFGVAVVITNDVV [Q22D], the protein stability index is reported as 1.65.
Variant RFLRMLLRLADEFGVAVVITNLVV [Q22L] has a protein stability index of 1.68.
In the case of RFLRMLLRLADEFGVAVVITNFVV [Q22F], the protein stability index is reported as 1.29.
With RFLRMLLRLADEFGVAVVITNSVV [Q22S] the protein stability index was 2.47.
In the case of RFLRMLLRLADEFGVAVVITNAVV [Q22A], the protein stability index is reported as 1.52.
RFLRMLLRLADEFGVAVVITNCVV [Q22C] showed a protein stability index of 2.3.
In the case of RFLRMLLRLADEFGVAVVITNHVV [Q22H], the protein stability index is reported as 1.9.
Variant RFLRMLLRLADEFGVAVVITNEVV [Q22E] has a protein stability index of 3.17.
For RFLRMLLRLADEFGVAVVITNRVV [Q22R], the protein stability index was 2.08.
RFLRMLLRLADEFGVAVVITNNVV [Q22N] showed a protein stability index of 1.85.
Variant RFLRMLLRLADEFGVAVVITNTVV [Q22T] has a protein stability index of 1.44.
Variant RFLRMLLRLADEFGVAVVITNVVV [Q22V] has a protein stability index of 2.24.
For RFLRMLLRLADEFGVAVVITNMVV [Q22M], the protein stability index was 1.65.
RFLRMLLRLADEFGVAVVITNYVV [Q22Y] gave a protein stability index of 2.77.
In the case of RFLRMLLRLADEFGVAVVITNIVV [Q22I], the protein stability index is reported as 1.43.
RFLRMLLRLADEFGVAVVITNKVV [Q22K] showed a protein stability index of 1.39.
RFLRMLLRLADEFGVAVVITNQVG [V24G] showed a protein stability index of 2.11.
In the case of RFLRMLLRLADEFGVAVVITNQVM [V24M], the protein stability index is reported as 2.4.
For RFLRMLLRLADEFGVAVVITNQVY [V24Y], the protein stability index was 1.6.
With RFLRMLLRLADEFGVAVVITNQVC [V24C] the protein stability index was 2.11.
With RFLRMLLRLADEFGVAVVITNQVF [V24F] the protein stability index was 2.68.
RFLRMLLRLADEFGVAVVITNQVT [V24T] showed a protein stability index of 1.83.
For RFLRMLLRLADEFGVAVVITNQVS [V24S], the protein stability index was 1.44.
With RFLRMLLRLADEFGVAVVITNQVR [V24R] the protein stability index was 2.55.
Variant RFLRMLLRLADEFGVAVVITNQVE [V24E] has a protein stability index of 1.41.
In the case of RFLRMLLRLADEFGVAVVITNQVN [V24N], the protein stability index is reported as 1.86.
Variant RFLRMLLRLADEFGVAVVITNQVP [V24P] has a protein stability index of 2.06.
Variant RFLRMLLRLADEFGVAVVITNQVH [V24H] has a protein stability index of 3.01.
RFLRMLLRLADEFGVAVVITNQVQ [V24Q] gave a protein stability index of 2.83.
For RFLRMLLRLADEFGVAVVITNQVL [V24L], the protein stability index was 2.03.
Variant RFLRMLLRLADEFGVAVVITNQVI [V24I] has a protein stability index of 3.73.
RFLRMLLRLADEFGVAVVITNQVW [V24W] showed a protein stability index of 1.25.
Work on RFLRMLLRLADEFGVAVVITNQVK [V24K] yielded a protein stability index of 1.45.
For RFLRMLLRLADEFGVAVVITNQVA [V24A], the protein stability index was 1.89.
RFLRMLLRLADEFGVAVVITNQVD [V24D] showed a protein stability index of 2.48.
Variant RFLRMLLRLADEFGVAVHITNQVV [V18H] has a protein stability index of 3.04.
For RFLRMLLRLADEFGVAVFITNQVV [V18F], the protein stability index was 1.24.
In the case of RFLRMLLRLADEFGVAVCITNQVV [V18C], the protein stability index is reported as 2.1.
RFLRMLLRLADEFGVAVAITNQVV [V18A] gave a protein stability index of 3.03.
RFLRMLLRLADEFGVAVGITNQVV [V18G] showed a protein stability index of 2.45.
RFLRMLLRLADEFGVAVNITNQVV [V18N] showed a protein stability index of 3.8.
For RFLRMLLRLADEFGVAVSITNQVV [V18S], the protein stability index was 3.17.
RFLRMLLRLADEFGVAVQITNQVV [V18Q] gave a protein stability index of 2.87.
Work on RFLRMLLRLADEFGVAVKITNQVV [V18K] yielded a protein stability index of 3.09.
In the case of RFLRMLLRLADEFGVAVLITNQVV [V18L], the protein stability index is reported as 2.62.
RFLRMLLRLADEFGVAVRITNQVV [V18R] showed a protein stability index of 2.94.
For RFLRMLLRLADEFGVAVWITNQVV [V18W], the protein stability index was 2.75.
RFLRMLLRLADEFGVAVPITNQVV [V18P] showed a protein stability index of 2.32.
With RFLRMLLRLADEFGVAVEITNQVV [V18E] the protein stability index was 2.44.
With RFLRMLLRLADEFGVAVIITNQVV [V18I] the protein stability index was 1.87.
Variant RFLRMLLRLADEFGVAVTITNQVV [V18T] has a protein stability index of 3.38.
For RFLRMLLRLADEFGVAVDITNQVV [V18D], the protein stability index was 2.79.
For RFLRMLLRLADEFGVAVMITNQVV [V18M], the protein stability index was 3.82.
